Laboratory results reported in patent US20230372526A1, “PREPARATION METHOD FOR BIS-S[…] ANTIBODY-DRUG CONJUGATE” (MABWELL (SHANGHAI) BIOSCIENCE CO., LTD., priority 2020, published 2023).
*1 amine or outer side, *2 acyl side, *3 side chain or, on linkers, in order; H or OH if unused. Where a SMILES comes first, the peptide text is derived from it. [ ]: non-standard residue; d: D form. The star is where a group is joined. ξ: configuration not given here. Dil(5ξ) = CCC(C)[C@@H]([C@@H](CC(=O)[*:2])OC)N(C)[*:1]; Dolaproine = CO[C@@H]([C@@H]1CCCN1)[C@@H](C)C(=O)O; Hexanoyl(6-maleimido) = O=C1C=CC(=O)N1CCCCCC(=O)*; PABC = O=C(OCc1ccc(N[*:1])cc1)[*:2]; X1 = C[C@@H](N*)[C@@H](O)c1ccccc1; Cit = NC(=O)NCCC[C@H](N)C(=O)O; NMeV = CN[C@H](C(=O)O)C(C)C

Test: Hydrolysis of Pertuzumab conjugated samples obtained using different small molecule compounds, hydrolysis percentage by Native MS
Assay type: physicochemical
Settings: for hydrolysis of conjugated samples (in words) / 6 h hydrolysis percentage / 18 h hydrolysis percentage: 50 mM PB pH 7.8, 35° C.; for hydrolysis of conjugated samples (in words): summary of Table 3-2; for hydrolysis speed of conjugated samples (in words): hydrolysis systems A-D, pH 7.8, summary of Table 3-3
Procedure: The analysis conditions were as follows: • Capillary activation: the capillary was rinsed with 0.1 mol/L sodium hydroxide for 10 min, 0.1 mol/L hydrochloric acid for 5 min and water for injection for 2 min respectively at 20 psi; and then rinsed with SDS-MW-Gel Buffer for 10 min at 70 psi; afterwards, pre-separation was performed for 10 min at 20 psi, at a column temperature of 25° C. and a voltage of −15 kv. The program was run: at 70 psi, the capillary was rinsed with 0.1 mol/L sodium hydroxide for 3 min, 0.1 mol/L hydrochloric acid for 1 min and water for injection for 1 min respectively; then the gel was poured for 10 min, the sample was loaded for 40 s at −5 kv, and the separation program was run ([…], 20 psi). The column temperature was set to 25° C., the voltage for separation was set to −15 kv, and the separation was performed for 40 min. • (4) Size exclusion chromatography (SEC-HPLC): • Sample treatment: the sample was diluted to 2.0-3.0 mg/ml with the mobile phase, and then was centrifuged at 12000 rpm for 10 min; and the supernatant was taken for analysis. • Chromatographic column: TOSOH, TSKgel G3000SWXL, 5 μm, 7.8 mm×300 mm; • Mobile phase: 100 mM PB+200 mM arginine hydrochloride, 5% isopropanol (pH 6.8); • Flow rate: 0.6 mL/min; • Detection wavelength: 280 nm; • Column temperature: 30° C.; • Loading volume: 10 uL; • Elution gradient: isocratic elution. • (5) Native MS: • Chromatographic column: ACQUITY UPLC Protein BEH SEC 200A (1.7 μm, 2.1 mm×150 mm); • Mobile phase: 50 mM ammonium acetate; • Running time: 12 min; • Flow rate: 0.065 mL/min; • Loading volume: 2 μL; • Column temperature: 30° C.; • Detection wavelength: 280 nm; • Capillary: 3.0 kV; • Cone voltage: 140 V; • Source offset: 80 V; • Source temperature: 125° C.; • Desolvation temperature: 250° C.; • Desolvation gas flow: 600 L/h. • (6) LC-MS:
Pertuzumab was reduced and conjugated as described in section a in Example 2. Conjugated samples obtained using different small molecule compounds were subjected to hydrolysis at 35° C. for a time period in the range of 3-18 hours, in 50 mM sodium dihydrogen phosphate-disodium hydrogen phosphate buffer, pH 7.8. The hydrolysis systems were sampled at different time points, and detected by Native MS.
Pertuzumab was reduced and conjugated as described in section a in Example 2. Conjugated samples obtained using different small molecule compounds were displaced to different hydrolysis solution systems (A: 50 mM sodium dihydrogen phosphate-disodium hydrogen phosphate buffer, pH 7.8; B: 50 mM sodium dihydrogen phosphate-disodium hydrogen phosphate buffer+3% arginine, pH 7.8; C: 50 mM potassium dihydrogen phosphate-dipotassium hydrogen phosphate buffer, pH 7.8; and D: 50 mM tromethamine-hydrochloric acid buffer, pH 7.8) for hydrolysis. Then the hydrolysis systems were sampled at different time points, and detected by Native MS.

[1] = Pertuzumab conjugate, Native MS
[2] = Pertuzumab conjugate, 50 mM sodium dihydrogen phosphate-disodium hydrogen phosphate buffer, pH 7.8, 35° C., Native MS
[3] = hydrolysis system A: 50 mM sodium dihydrogen phosphate-disodium hydrogen phosphate buffer, pH 7.8
[4] = hydrolysis system B: 50 mM sodium phosphate buffer+3% arginine, pH 7.8
[5] = hydrolysis system C: 50 mM potassium dihydrogen phosphate-dipotassium hydrogen phosphate buffer, pH 7.8
[6] = hydrolysis system D: 50 mM tromethamine-hydrochloric acid buffer, pH 7.8

With `CCC(C)[C@@H]([C@@H](CC(=O)N1CCC[C@H]1[C@H](OC)[C@@H](C)C(=O)N[C@H](C)[C@@H](O)c1ccccc1)OC)N(C)C(=O)[C@@H](NC(=O)[C@H](C(C)C)N(C)C(=O)OCc1ccc(NC(=O)[C@H](CCCNC(N)=O)NC(=O)[C@@H](NC(=O)COCCOCCOCCOc2c(OC)cc(N3C(=O)C(Sc4ccccc4)=C(Sc4ccccc4)C3=O)cc2OC)C(C)C)cc1)C(C)C` (stereo partly shown) [A-2] the “hydrolysis of conjugated samples (in words)” value was “relatively low percentage of hydrolysis”, the “6 h hydrolysis percentage” value [1] was 30.33% and the “18 h hydrolysis percentage” value [1] was 48.43%. The “3 h hydrolysis percentage” value [2] was 17.85%.
With `CCC(C)[C@@H]([C@@H](CC(=O)N1CCC[C@H]1[C@H](OC)[C@@H](C)C(=O)N[C@H](C)[C@@H](O)c1ccccc1)OC)N(C)C(=O)[C@@H](NC(=O)[C@H](C(C)C)N(C)C(=O)OCc1ccc(NC(=O)[C@H](CCCNC(N)=O)NC(=O)[C@@H](NC(=O)COCCOCCOCCOc2c(F)cc(N3C(=O)C(Sc4ccccc4)=C(Sc4ccccc4)C3=O)cc2F)C(C)C)cc1)C(C)C` (stereo partly shown) [A-3] the “1 h hydrolysis percentage” value [3] was 89.31%, the “3 h hydrolysis percentage” value [3] was 99.32% and the “1 h hydrolysis percentage” value [4] was 93.48%. The “3 h hydrolysis percentage” value [4] was 99.41%, the “1 h hydrolysis percentage” value [5] was 92.52% and the “3 h hydrolysis percentage” value [5] was 99.70%. The “1 h hydrolysis percentage” value [6] was 90.33%, the “3 h hydrolysis percentage” value [6] was 99.31% and the “hydrolysis speed of conjugated samples (in words)” value (“hydrolysis speed” for short) was “hydrolyzed rapidly in all above buffers”.
For `CCC(C)[C@@H]([C@@H](CC(=O)N1CCC[C@H]1[C@H](OC)[C@@H](C)C(=O)N[C@H](C)[C@@H](O)c1ccccc1)OC)N(C)C(=O)[C@@H](NC(=O)[C@H](C(C)C)N(C)C(=O)OCc1ccc(NC(=O)[C@H](CCCNC(N)=O)NC(=O)[C@@H](NC(=O)COCCOCCOCCOc2ccc(N3C(=O)C(Sc4ccccc4)=C(Sc4ccccc4)C3=O)c(C(F)(F)F)c2)C(C)C)cc1)C(C)C` (stereo partly shown) [A-4], the “hydrolysis of conjugated samples (in words)” value was “relatively low percentage of hydrolysis”, the “6 h hydrolysis percentage” value [1] was 38.49% and the “18 h hydrolysis percentage” value [1] was 53.46%. For the same compound, the “3 h hydrolysis percentage” value [2] was 25.99%, the “1 h hydrolysis percentage” value [3] was 15.65% and the “3 h hydrolysis percentage” value [3] was 25.99%. The “1 h hydrolysis percentage” value [4] was 18.17%, the “3 h hydrolysis percentage” value [4] was 35.23% and the “1 h hydrolysis percentage” value [5] was 14.98%. The “3 h hydrolysis percentage” value [5] was 26.13%, the “1 h hydrolysis percentage” value [6] was 14.56% and the “3 h hydrolysis percentage” value [6] was 25.32%. The “hydrolysis speed” value was “required more time for being hydrolyzed”.
For `CCC(C)[C@@H]([C@@H](CC(=O)N1CCC[C@H]1[C@H](OC)[C@@H](C)C(=O)N[C@H](C)[C@@H](O)c1ccccc1)OC)N(C)C(=O)[C@@H](NC(=O)[C@H](C(C)C)N(C)C(=O)OCc1ccc(NC(=O)[C@H](CCCNC(N)=O)NC(=O)[C@@H](NC(=O)COCCOCCOCCOc2ccc(N3C(=O)C(Sc4ccccc4)=C(Sc4ccccc4)C3=O)cn2)C(C)C)cc1)C(C)C` (stereo partly shown) [A-5], the “6 h hydrolysis percentage” value [1] was 16.76%, the “18 h hydrolysis percentage” value [1] was 28.81% and the “3 h hydrolysis percentage” value [2] was 7.29%.
In the case of `CCC(C)[C@@H]([C@@H](CC(=O)N1CCC[C@H]1[C@H](OC)[C@@H](C)C(=O)N[C@H](C)[C@@H](O)c1ccccc1)OC)N(C)C(=O)[C@@H](NC(=O)[C@H](C(C)C)N(C)C(=O)OCc1ccc(NC(=O)[C@H](CCCNC(N)=O)NC(=O)[C@@H](NC(=O)COCCOCCOCCOc2ccc(N3C(=O)C(Sc4ccc(C(=O)NC)cc4)=C(Sc4ccc(C(=O)NC)cc4)C3=O)cc2C(F)(F)F)C(C)C)cc1)C(C)C` (stereo partly shown) [B-6], the “hydrolysis of conjugated samples (in words)” value is reported as “relatively low percentage of hydrolysis”, the “6 h hydrolysis percentage” value [1] is reported as 33.32% and the “18 h hydrolysis percentage” value [1] is reported as 47.60%. For the same compound, the “3 h hydrolysis percentage” value [2] was 22.86%.
With `CCC(C)[C@@H]([C@@H](CC(=O)N1CCC[C@H]1[C@H](OC)[C@@H](C)C(=O)N[C@H](C)[C@@H](O)c1ccccc1)OC)N(C)C(=O)[C@@H](NC(=O)[C@H](C(C)C)N(C)C(=O)OCc1ccc(NC(=O)[C@H](CCCNC(N)=O)NC(=O)[C@@H](NC(=O)COCCOCCOCCOc2ccc(N3C(=O)C(Sc4ccc(C(=O)NC)cc4)=C(Sc4ccc(C(=O)NC)cc4)C3=O)cc2OC)C(C)C)cc1)C(C)C` (stereo partly shown) [B-7] the “hydrolysis of conjugated samples (in words)” value was “relatively low percentage of hydrolysis”, the “6 h hydrolysis percentage” value [1] was 54.71% and the “18 h hydrolysis percentage” value [1] was 76.15%. For the same compound, the “3 h hydrolysis percentage” value [2] was 34.10%, the “1 h hydrolysis percentage” value [3] was 15.83% and the “3 h hydrolysis percentage” value [3] was 34.10%. For the same compound, the “1 h hydrolysis percentage” value [4] was 26.12%, the “3 h hydrolysis percentage” value [4] was 51.25% and the “1 h hydrolysis percentage” value [5] was 15.12%. The “3 h hydrolysis percentage” value [5] was 35.12%, the “1 h hydrolysis percentage” value [6] was 16.62% and the “3 h hydrolysis percentage” value [6] was 36.43%. For the same compound, the “hydrolysis speed” value was “required more time for being hydrolyzed”.
In the case of `CCC(C)[C@@H]([C@@H](CC(=O)N1CCC[C@H]1[C@H](OC)[C@@H](C)C(=O)N[C@H](C)[C@@H](O)c1ccccc1)OC)N(C)C(=O)[C@@H](NC(=O)[C@H](C(C)C)N(C)C(=O)OCc1ccc(NC(=O)[C@H](CCCNC(N)=O)NC(=O)[C@@H](NC(=O)COCCOCCOCCOc2ccc(N3C(=O)C(Sc4ccc(C(=O)N5CCOCC5)cc4)=C(Sc4ccc(C(=O)N5CCOCC5)cc4)C3=O)cc2)C(C)C)cc1)C(C)C` (stereo partly shown) [C-1], the “hydrolysis of conjugated samples (in words)” value is reported as “hydrolyzed all most completely within 3 hours or 6 hours”, the “6 h hydrolysis percentage” value [1] is reported as 98.25% and the “3 h hydrolysis percentage” value [2] is reported as 79.08%. The “1 h hydrolysis percentage” value [3] was 85.31%, the “3 h hydrolysis percentage” value [3] was 99.56% and the “1 h hydrolysis percentage” value [4] was 94.52%. For the same compound, the “3 h hydrolysis percentage” value [4] was 99.87%, the “1 h hydrolysis percentage” value [5] was 87.52% and the “3 h hydrolysis percentage” value [5] was 99.70%. The “1 h hydrolysis percentage” value [6] was 84.78%, the “3 h hydrolysis percentage” value [6] was 99.79% and the “hydrolysis speed” value was “hydrolyzed rapidly in all above buffers”.
For `CCC(C)[C@@H]([C@@H](CC(=O)N1CCC[C@H]1[C@H](OC)[C@@H](C)C(=O)N[C@H](C)[C@@H](O)c1ccccc1)OC)N(C)C(=O)[C@@H](NC(=O)[C@H](C(C)C)N(C)C(=O)OCc1ccc(NC(=O)[C@H](CCCNC(N)=O)NC(=O)[C@@H](NC(=O)COCCOCCOCCOc2c(F)cc(N3C(=O)C(Sc4ccc(C(=O)N5CCOCC5)cc4)=C(Sc4ccc(C(=O)N5CCOCC5)cc4)C3=O)cc2F)C(C)C)cc1)C(C)C` (stereo partly shown) [C-3], the “hydrolysis of conjugated samples (in words)” value was “hydrolyzed all most completely within 3 hours or 6 hours”, the “6 h hydrolysis percentage” value [1] was 99.56% and the “3 h hydrolysis percentage” value [2] was 98.31%. For the same compound, the “1 h hydrolysis percentage” value [3] was 90.31%, the “3 h hydrolysis percentage” value [3] was 99.56% and the “1 h hydrolysis percentage” value [4] was 97.52%. The “3 h hydrolysis percentage” value [4] was 99.41%, the “1 h hydrolysis percentage” value [5] was 90.55% and the “3 h hydrolysis percentage” value [5] was 99.70%. For the same compound, the “1 h hydrolysis percentage” value [6] was 88.36%, the “3 h hydrolysis percentage” value [6] was 99.34% and the “hydrolysis speed” value was “hydrolyzed rapidly in all above buffers”.
For `CCC(C)[C@@H]([C@@H](CC(=O)N1CCC[C@H]1[C@H](OC)[C@@H](C)C(=O)N[C@H](C)[C@@H](O)c1ccccc1)OC)N(C)C(=O)[C@@H](NC(=O)[C@H](C(C)C)N(C)C(=O)OCc1ccc(NC(=O)[C@H](CCCNC(N)=O)NC(=O)[C@@H](NC(=O)CCCCCN2C(=O)C=CC2=O)C(C)C)cc1)C(C)C` (stereo partly drawn) [D-1] ({Hexanoyl(6-maleimido)}-V[Cit][PABC][NMeV]V[Dil(5ξ)][Dolaproine]-X1), the “6 h hydrolysis percentage” value [1] was 7.67%, the “18 h hydrolysis percentage” value [1] was 21.44% and the “3 h hydrolysis percentage” value [2] was 4.74%.
